Test results as given in US6168954A, “Soybean glutathione-S-transferase enzymes” (E. I. du Pont de Nemours & Company, priority 1999, dated 2001).

Experiments:
Format in all cases: biochemical
Conditions in all cases: 0.4 mM electrophilic substrate, 4 mM glutathione, 0.1 M MOPS pH 7.0, corrected for uncatalyzed reaction
[1] = GST conjugation activity with Atrazine (HPLC)
Description: (§1) The GST enzymes, expressed and purified as described in Example 5 were screened for their ability to metabolize a variety of substrates. Substrates tested included the three herbicide electrophilic substrates chlorimuron ethyl, alachlor, and Atrazine, and four model electrophilic substrates, 1-chloro-2, 4-dinitro-benzene (CDNB), ethacrynic acid, t-stilbene oxide, and 1,2-epoxy-3-(p-nitro-phenoxy) propane. The enzymes were purified as described in Example 5 and used in the following assay.
(§2) For each enzyme, the conjugation reaction with each electrophilic substrate was performed by incubating 0.3 to 30 μg enzyme in 0.1 M MOPS (pH 7.0) containing 0.4 mM of the electrophilic substrate. The reaction was inititated by the addition of glutathione to a final concentration of 4 mM. After 5 to 30 min, the reaction was terminated by the addition of 45 μL acetonitrile, microfuged for 10 min to remove precipitated protein, and then the supematent was removed and added to 65 μL of water. This sample was chromatographed on a Zorbax C8 reverse phase HPLC column (3 μm particle size, 6.2 mm×8 cm) using a combination of linear gradients (flow=1.5 mL/min) of 1% H3 PO4 in water (solvent A) and 1% H3 PO4 in acetonitile. The gradient started with 5% solvent B, progressing from 5% to 75% solvent B between 1 and 10 min, and from 75% to 95% solvent B between 10 and 12 min. Control reactions without enzyme were performed to correct for uncatalyzed reaction. Quantitation of metabolites were based on an assumption that the extinction coefficient of the conjugate was identical to that of the electrophilic substrate.
(§3) Activities are related to the activity of a known and previously isolated and purified GST enzyme, GH2/4 (also called GST 26) (Czarnecka et al., Plant Molecular Biology 3:45-58 (1984); Ulmasoz et al., Plant Physiol 108:919-927 (1995)).

[2] = GST conjugation activity with CDNB (HPLC)
Description: as §1, §2, §3

[3] = GST conjugation activity with ethacrynic acid (HPLC)
Description: as §1, §2, §3

[4] = GST conjugation activity with 1,2-epoxy-3-(p-nitrophenoxy)propane (HPLC)
Description: as §1, §2, §3

[5] = GST conjugation activity with alachlor (HPLC)
Description: as §1, §2, §3

[6] = GST conjugation activity with chlorimuron ethyl (HPLC)
Description: as §1, §2, §3

[7] = GST conjugation activity with t-stilbene oxide (HPLC)
Description: as §1, §2, §3

B1: se1.pk0017.f5: soybean type IV GST encoded by cDNA insert in clone se1.pk0017.f5 (protein)
chain: MASLGVRPVLPPPLTSISDPPPLFDGTTRLYISYSCPYAQRVWIARNYKGLQDKINLVPINLQDRPAWYKEKVYPENKVPSLEHNGKVLGESLDLIKYVDANFEGTPLFPSDPAKKEFGEQLISHVDTFSKDLFVSLKGDAVQQASPAFEYLENALGKFDDGPFLLGQFSLVDIAYIPFVERFQIVFAEVFKHDITEGRPKLATWFEELNKLNAYTETRVDPQEIVDLFKKRFLPQQ
Activity of soybean GST enzyme, Atrazine [1]: 0.00 nmol/min/mg
Activity of soybean GST enzyme, CDNB [2]: 30 nmol/min/mg
Activity of soybean GST enzyme, Ethacrynic Acid [3]: 3 nmol/min/mg
Activity of soybean GST enzyme, 1,2-epoxy-3-(p-nitrophenoxy)propane [4]: 0 nmol/min/mg
Activity of soybean GST enzyme, Alachlor [5]: 0 nmol/min/mg
Activity of soybean GST enzyme, Chlorimuron Ethyl [6]: 0.0 nmol/min/mg
Activity of soybean GST enzyme, T-Stilbene Oxide [7]: 0.15 nmol/min/mg
